Laboratory results reported in the supplement of paper PMC11246515.
± gives the standard deviation of the averaged measurements.

Experiment: total protein half-life in vivo (active degradation + dilution); higher = more stable protein
[1] = E. coli NCM3722 delta-clpP delta-lon delta-hslV, growth: N-lim chemostat, doubling time 6 h
[2] = E. coli NCM3722 delta-hslV, growth: N-lim chemostat, doubling time 6 h
[3] = E. coli NCM3722 delta-lon, growth: N-lim chemostat, doubling time 6 h
[4] = E. coli NCM3722 delta-smpB, growth: N-lim chemostat, doubling time 6 h
[5] = wild type E. coli NCM3722, growth: C-lim chemostat, doubling time 3 h
[6] = wild type E. coli NCM3722, growth: C-lim chemostat, doubling time 6 h
[7] = wild type E. coli NCM3722, growth: C-lim chemostat, doubling time 12 h
[8] = wild type E. coli NCM3722, growth: N-lim chemostat, doubling time 6 h
[9] = wild type E. coli NCM3722, growth: N-lim chemostat, doubling time 12 h
[10] = wild type E. coli NCM3722, growth: P-lim chemostat, doubling time 6 h
[11] = wild type E. coli NCM3722, growth: P-lim chemostat, doubling time 12 h
[12] = E. coli NCM3722 delta-clpP, growth: N-lim chemostat, doubling time 6 h

Sequence	total protein half-life in vivo [1] [h]	total protein half-life in vivo [2] [h]	total protein half-life in vivo [3] [h]	total protein half-life in vivo [4] [h]	total protein half-life in vivo [5] [h]	total protein half-life in vivo [6] [h]	total protein half-life in vivo [7] [h]	total protein half-life in vivo [8] [h]	total protein half-life in vivo [9] [h]	total protein half-life in vivo [10] [h]	total protein half-life in vivo [11] [h]	total protein half-life in vivo [12] [h]
MSNKPFIYQAPFPMGKDNTEYYLLTSDYVSVADFDGETILKVEPEALTLLAQQAFHDASFMLRPAHQKQVAAILHDPEASENDKYVALQFLRNSEIAAKGVLPTCQDTGTAIIVGKKGQRVWTGGGDEETLSKGVYNTYIEDNLRYSQNAALDMYKEVNTGTNLPAQIDLYAVDGDEYKFLCVAKGGGSANKTYLYQETKALLTPGKLKNFLVEKMRTLGTAACPPYHIAFVIGGTSAETNLKTVKLASAHYYDELPTEGNEHGQAFRDVQLEQELLEEAQKLGLGAQFGGKYFAHDIRVIRLPRHGASCPVGMGVSCSADRNIKAKINREGIWIEKLEHNPGQYIPQELRQAGEGEAVKVDLNRPMKEILAQLSQYPVSTRLSLTGTIIVGRDIAHAKLKELIDAGKELPQYIKDHPIYYAGPAKTPAGYPSGSLGPTTAGRMDSYVDLLQSHGGSMIMLAKGNRSQQVTDACHKHGGFYLGSIGGPAAVLAQQSIKHLECVAYPELGMEAIWKIEVEDFPAFILVDDKGNDFFQQIVNKQCANCTK	5.77 ± 0.79	4.08 ± 0.13	4.19 ± 0.42	3.86 ± 0.25	3.08 ± 0.042	5.65 ± 0.69	9.34 ± 1.8	4.28 ± 0.48	5.98 ± 0.31	5.73	11.2 ± 0.73	–
MSNLLGPRDANGIPVPMTVDESIASMKASLLKKIKRSAYVYRVDCGGCNGCEIEIFATLSPLFDAERFGIKVVPSPRHADILLFTGAVTRAMRSPALRAWQSAPDPKICISYGACGNSGGIFHDLYCVWGGTDKIVPVDVYIPGCPPTPAATLYGFAMALGLLEQKIHARGPGELDEQPAEILHGDMVQPLRVKVDREARRLAGYRYGRQIADDYLTQLGQGEEQVARWLEAENDPRLNEIVSHLNHVVEEARIR	5.31	–	–	–	–	–	–	–	–	–	–	–
MSNLSLDFSDNTFQPLAARMRPENLAQYIGQQHLLAAGKPLPRAIEAGHLHSMILWGPPGTGKTTLAEVIARYANADVERISAVTSGVKEIREAIERARQNRNAGRRTILFVDEVHRFNKSQQDAFLPHIEDGTITFIGATTENPSFELNSALLSRARVYLLKSLSTEDIEQVLTQAMEDKTRGYGGQDIVLPDETRRAIAELVNGDARRALNTLEMMADMAEVDDSGKRVLKPELLTEIAGERSARFDNKGDRFYDLISALHKSVRGSAPDAALYWYARIITAGGDPLYVARRCLAIASEDVGNADPRAMQVAIAAWDCFTRVGPAEGERAIAQAIVYLACAPKSNAVYTAFKAALADARERPDYDVPVHLRNAPTKLMKEMGYGQEYRYAHDEANAYAAGEVYFPPEIAQTRYYFPTNRGLEGKIGEKLAWLAEQDQNSPIKRYR [P0AAZ4]	5.65 ± 0.3	4.91 ± 1.5	4.562 ± 0.028	3.65 ± 0.14	3.02 ± 0.14	5.39 ± 0.29	9.37 ± 0.81	3.82 ± 0.099	5.11 ± 0.23	5.07 ± 0.082	9.954 ± 0.019	4.56 ± 0.49
MSNVQEWQQLANKELSRREKTVDSLVHQTAEGIAIKPLYTEADLDNLEVTGTLPGLPPYVRGPRATMYTAQPWTIRQYAGFSTAKESNAFYRRNLAAGQKGLSVAFDLATHRGYDSDNPRVAGDVGKAGVAIDTVEDMKVLFDQIPLDKMSVSMTMNGAVLPVLAFYIVAAEEQGVTPDKLTGTIQNDILKEYLCRNTYIYPPKPSMRIIADIIAWCSGNMPRFNTISISGYHMGEAGANCVQQVAFTLADGIEYIKAAISAGLKIDDFAPRLSFFFGIGMDLFMNVAMLRAARYLWSEAVSGFGAQDPKSLALRTHCQTSGWSLTEQDPYNNVIRTTIEALAATLGGTQSLHTNAFDEALGLPTDFSARIARNTQIIIQEESELCRTVDPLAGSYYIESLTDQIVKQARAIIQQIDEAGGMAKAIEAGLPKRMIEEASAREQSLIDQGKRVIVGVNKYKLDHEDETDVLEIDNVMVRNEQIASLERIRATRDDAAVTAALNALTHAAQHNENLLAAAVNAARVRATLGEISDALEVAFDRYLVPSQCVTGVIAQSYHQSEKSASEFDAIVAQTEQFLADNGRRPRILIAKMGQDGHDRGAKVIASAYSDLGFDVDLSPMFSTPEEIARLAVENDVHVVGASSLAAGHKTLIPELVEALKKWGREDICVVAGGVIPPQDYAFLQERGVAAIYGPGTPMLDSVRDVLNLISQHHD	–	–	–	–	3.42	–	–	–	–	–	–	–
MSPIEKSSKLENVCYDIRGPVLKEAKRLEEEGNKVLKLNIGNPAPFGFDAPDEILVDVIRNLPTAQGYCDSKGLYSARKAIMQHYQARGMRDVTVEDIYIGNGVSELIVQAMQALLNSGDEMLVPAPDYPLWTAAVSLSSGKAVHYLCDESSDWFPDLDDIRAKITPRTRGIVIINPNNPTGAVYSKELLMEIVEIARQHNLIIFADEIYDKILYDDAEHHSIAPLAPDLLTITFNGLSKTYRVAGFRQGWMVLNGPKKHAKGYIEGLEMLASMRLCANVPAQHAIQTALGGYQSISEFITPGGRLYEQRNRAWELINDIPGVSCVKPRGALYMFPKIDAKRFNIHDDQKMVLDFLLQEKVLLVQGTAFNWPWPDHFRIVTLPRVDDIELSLSKFARFLSGYHQL [P0A959]	4.25 ± 0.35	3.89 ± 0.23	4.86 ± 1.1	3.88 ± 0.19	3.14 ± 0.28	5.63 ± 0.23	9.16 ± 0.84	3.76 ± 0.29	7.13 ± 0.82	6.06 ± 0.87	11.78 ± 0.1	3.41 ± 0.16
MSPTIYDIARVAGVSKSTVSRVLNKQTNISPEAREKVLRAIEELQYQPNKLARALTSSGFDAIMVISTRSTKTTAGNPFFSEVLHAITAKAEEEGFDVILQTSHNPAEDLQKCESKIKQKMIKGIIMLSSPADESFFAQLDKYDIPVVVIGKVEGQYAHVYSVDTDNFGDSIALTDALIESGHQNIACLHAPLDVHVSVDRVNGYKQSLAAHNIAVRDEWIVDGGYTHETALKAARQLLSQSPLPEAVFATDSLKLMSIYRAAAEKNIAIPQQLAVVGYSNETLSFILTPAPGGIDVPTQELGQQSCELLFRLISGKPSPQNITVATHMTLK	5.84 ± 0.79	5.76 ± 0.6	–	4.86 ± 0.18	2.48 ± 0.17	5.41 ± 0.97	10.2 ± 2.9	5.34 ± 0.57	9.3 ± 0.42	5.06 ± 0.33	10.6 ± 2.2	4.18 ± 1.6
